# Measured values reported in IntAct's records for PubMed 19798056.
# B1: TOM1-like protein 1 (Homo sapiens), O75674 (parent)
# chain: MAFGKSHRDPYATSVGHLIEKATFAGVQTEDWGQFMHICDIINTTQDGPKDAVKALKKRISKNYNHKEIQLTLSLIDMCVQNCGPSFQSLIVKKEFVKENLVKLLNPRYNLPLDIQNRILNFIKTWSQGFPGGVDVSEVKEVYLDLVKKGVQFPPSEAEAETARQETAQISSNPPTSVPTAPALSSVIAPKNSTVTLVPEQIGKLHSELDMVKMNVRVMSAILMENTPGSENHEDIELLQKLYKTGREMQERIMDLLVVVENEDVTVELIQVNEDLNNAILGYERFTRNQQRILEQNKNQKEATNTTSEPSAPSQDLLDLSPSPRMPRATLGELNTMNNQLSGLNFSLPSSDVTNNLKPSLHPQMNLLALENTEIPPFAQRTSQNLTSSHAYDNFLEHSNSVFLQPVSLQTIAAAPSNQSLPPLPSNHPAMTKSDLQPPNYYEVMEFDPLAPAVTTEAIYEEIDAHQHKGAQNDGD
# Variants of: B1
# Details: with grb2_human GRB2, P62993
row,effect of a mutation on the interaction,Variant
1,disrupting interaction,Y460F

# Variants of: B1
# Details: with grb2_human GRB2, P62993
# Remark: another data set of the same source
row,effect of a mutation on the interaction,Variant
1,disrupting interaction,Y392F
